Measurements published in patent US6437095 (Hoffmann-La Roche, dated 2002).
Where no end group is shown, it is not given here.

Molecular target: T1, polyionic peptide AlaCysLysLysLysLysLysLysLysLys (ACK8) (also: also used as mixed disulfide with glutathione on Cys (ACK8-SG))
T1 construct: Synthetic peptide (Fmoc); also called ACK8-SG (mixed disulfide with glutathione)
T1 peptide: ACKKKKKKKK
Experiment: 20 µM ACE8 with the mixed disulfide ACK8-SG, 0 to 1 M NaCl, cation exchange chromatography

ACEEEEEEEE (Synthetic peptide (Fmoc)) [polyionic peptide AlaCysGluGluGluGluGluGluGluGlu (ACE8)]: binds.
